Read-outs that look alike come from different tables or passages of the source.
Experiments:
yeast proteasome (26S) [1] = system: yeast proteasome (26S)
[2] = molecular target: yeast proteasome (26S) (S. cerevisiae (yeast)); experiment: cell-based or functional assay
yeast proteasome (26S) [3] = molecular target: yeast proteasome (26S); remark: listed apart in the source
[4] = molecular target: proteasome regulatory particle (RP) purified from a ubp6Δ strain

inhibition of degradation of ub-cyclin B (quantitative mass spectrometry, 20-minute incubation) [2] [%] | Molecule | cyclin B degradation assay (yeast proteasome (26S) [1]) | cyclin B degradation by ubp6Δ proteasomes after add-back of recombinant Ubp6 (yeast proteasome (26S) [3]) | deubiquitination of cyclin B (yeast proteasome (26S) [3]) | ubiquitin chain shortening of ub-cyclin B conjugates [4] | cyclin B degradation assay (yeast proteasome (26S) [3])
 | Ubp6-ublΔ | Deletion of the Ubl domain rendered Ubp6 non-inhibitory in the cyclin B degradation assay (FIG. 4B) |  |  |  | 
70 | Ubp6 (protein) MSGETFEFNIRHSGKVYPITLSTDATSADLKSKAEELTQVPSARQKYMVKGGLSGEESIKIYPLIKPGSTVMLLGTPDANLISKPAKKNNFIEDLAPEQQVQQFAQLPVGFKNMGNTCYLNATLQALYRVNDLRDMILNYNPSQGVSNSGAQDEEIHKQIVIEMKRCFENLQNKSFKSVLPIVLLNTLRKCYPQFAERDSQGGFYKQQDAEELFTQLFHSMSIVFGDKFSEDFRIQFKTTIKDTANDNDITVKENESDSKLQCHISGTTNFMRNGLLEGLNEKIEKRSDLTGANSIYSVEKKISRLPKFLTVQYVRFFWKRSTNKKSKILRKVVFPFQLDVADMLTPEYAAEKVKVRDELRKVEKEKNEKEREIKRRKFDPSSSENVMTPREQYETQVALNESEKDQWLEEYKKHFPPNLEKGENPSCVYNLIGVITHQGANSESGHYQAFIRDELDENKWYKFNDDKVSVVEKEKIESLAGGGESDSALILMYKGFGL |  | a marked inhibition of cyclin B degradation (FIG. 1F) was observed | when Ubp6 is incubated in the presence of cyclin B, but without proteasomes, no deubiquitination of cyclin B is observed (FIG. 4D) | addition of purified Ubp6 to RP resulted in chain shortening, although to a lesser extent than with 26S proteasomes (FIG. 6A) | 
70 | Ubp6-C118A (protein) MSGETFEFNIRHSGKVYPITLSTDATSADLKSKAEELTQVPSARQKYMVKGGLSGEESIKIYPLIKPGSTVMLLGTPDANLISKPAKKNNFIEDLAPEQQVQQFAQLPVGFKNMGNTAYLNATLQALYRVNDLRDMILNYNPSQGVSNSGAQDEEIHKQIVIEMKRCFENLQNKSFKSVLPIVLLNTLRKCYPQFAERDSQGGFYKQQDAEELFTQLFHSMSIVFGDKFSEDFRIQFKTTIKDTANDNDITVKENESDSKLQCHISGTTNFMRNGLLEGLNEKIEKRSDLTGANSIYSVEKKISRLPKFLTVQYVRFFWKRSTNKKSKILRKVVFPFQLDVADMLTPEYAAEKVKVRDELRKVEKEKNEKEREIKRRKFDPSSSENVMTPREQYETQVALNESEKDQWLEEYKKHFPPNLEKGENPSCVYNLIGVITHQGANSESGHYQAFIRDELDENKWYKFNDDKVSVVEKEKIESLAGGGESDSALILMYKGFGL |  |  |  |  | a catalytically inactive point mutant of Ubp6 (Ubp6-C118A) proved competent for inhibition (FIG. 4B)
